# Reference: patent publication US20090305339A1, “Polypeptides With Laccase Activity” (VIALACTIA BIOSCIENCES (NZ) LIMITED, priority 2006, published 2009)
# B1: RL5: polypeptide with laccase activity from bovine rumen metagenome library, amino acid sequence of FIG. 11 (protein)
# chain: MIELEKLDFAKSVEGVEAFSTTRGQVDGRNAYSGVNLCDYVGDDALRVLDARLTLAMQLGVDLDDLVMPRQTHSCRVAVIDERFRALDIDEQEAALEGVDALVTRLQGIVIGVNTADCVPIVLVDSQAGIVAVSHAGWRGTVGRIAKAVVEEMCRQGATVDRIQAAMGPSICQDCFEVGDEVVEAFKKAHFNLNDIVVRNPATGKAHIDLRAANRAVLVAAGVPAANIVESQHCSRCEHTSFFSARRLGINSGRTFTGIYRK
# modifications: Description of sequence Amino acid sequence of RL5 laccase 3217 to 2414 frame 1 - 262 amino acids (see Figure 11)
# Key:
# [1] = Laccase activity, 3,4-dimetoxybenzyl alcohol as substrate; type: biochemical
# Method: (§1) Laccase activity was determined spectrophotometrically in a thermostated spectrophotometer (Perkin-Elmer) at 40° C. in 100 mM sodium citrate buffer, pH 4.5 (1 ml). The standard assay was performed at 530 nm, using SGZ as the oxidation substrate (ε530=64,000 M^−1cm^−1). The reaction was started by adding SGZ, from a stock solution in methanol, to a final concentration of 20 μM. […] Oxidation of phenol red (75 μM) was determined by the decrease in absorbance at 432 nm. The activity:pH and activity:temperature relationships were determined by incubating the enzyme:substrate mixtures at different pH values and constant temperature (40° C.), and at different temperatures (15-80° C.) and constant pH (4.5), respectively. Catalytic constants were derived by fitting the experimental data onto the Michaelis-Menten model. Control measurements without enzyme were carried out to correct for possible chemical oxidation of the substrates.
# [2] = Laccase activity, 1-HBT as substrate; type: biochemical
# [3] = Laccase activity, violuric acid as substrate; type: biochemical
# [4] = Oxidative reactions of various compounds (substrate preference, overall kinetics, pH range); type: biochemical; conditions: order of oxidized substrates
# Method: as §1
# [5] = Electrochemical analysis of immobilized laccase in the presence of DMP; conditions: for electrochemical activity (current): DMP
# Description: RL5 was immobilized on BAS glassy carbon electrodes (FIGS. 3B,D) or on gold electrodes (FIGS. 3A,C). Both materials provide different enzyme orientations:
# (i) the carbon electrode presents hydroxyl groups on the surface, providing a laccase substrate-like structure, which makes the enzyme to immobilize preferably with the active site facing the electrode surface; and
# (ii) gold provides high hydrophobic surface that avoids the contact between the high-hydrophilic density amino acid domain of the enzyme and the electrode, being the hydrophobic domains which preferably orient towards the gold surface.
# Some differences in the electrochemical measurements were observed due to the different orientation of the enzyme on the electrode in the presence of substrate (DMP) (FIGS. 3A,B). Thus, when RL5 laccase was immobilized on gold (FIG. 3A), the activity in the presence of oxygen was of 0.38 microamperes (dashed line), whereas in the absence of oxygen it was of 0.69 microamperes (dotted line). Most likely, the enzyme is using approximately half of the electrons for the reduction of the substrate and the other half from the oxygen in the solution; however, in absence of oxygen, all the electrons are used from the electrode, giving a higher measurement value. When using the carbon electrode (FIG. 3B), the enzyme orients in such a way that the measure, in the presence of oxygen, was 2.8 microamperes (dashed line). This could be explained by the fact that 93% of the electrons are used from the electrode, either because of different enzyme orientations, or because the immobilization on carbon kept higher amount (approximately 7 times) of laccase active. In the carbon electrode the T2 copper oxidization potential site, +500 vs. normal hydrogen electrode (NHE) was determined.
# The electrochemical measurements have been performed with BAS CV-50W voltammetric analyzer. For gold surface experiments, a gold BAS disc electrode has been used. The electrode was cleaned according to the following procedure: the electrode was firstly immersed in “piranha” solution, containing 1 part of hydrogen peroxide 33% v and 3 parts of sulphuric acid 98%, during 5 minutes, after which the electrode was rinsed thoroughly with milliQ water, and polished with Buehler® micropolish gamma alumina #3, 0.05 micron size, during 5 minutes, on a polishing cloth, further immersed into a milliQ water solution and exposed to ultrasounds for 15 minutes. Then, the electrode was cleaned with sulphuric acid oxidization cyclic voltammetry for 30 minutes. […] After 180 minutes from the first addition, the laccase-modified gold electrode was measured in 100 mM phosphate buffer (pH 6.0) in the presence of oxygen. […]
# [6] = Electrochemical analysis of immobilized laccase in absence of substrate; conditions: for potential at which electro-reduction of oxygen begins: no substrate
# Description: Electrochemical information on electrodes modified with RL5 laccase in absence of substrate was also obtained (FIGS. 3C,D). Again, we found some differences when the electrode material was gold or glassy carbon. Thus, the electro-reduction of oxygen begins in +250 mV when the electrode was gold (FIG. 3C), while it began at +500 mv when it was glassy carbon (FIG. 3D). We found additional information on the glassy carbon electrode compared with the gold electrode. Thus, when removing the oxygen from solution, the T1 copper site oxidization potential of 740 mV vs. NHE was registered. In addition, when a reactivation with oxygen was performed, the three oxidation potential peaks were registred: T1 of 745 mV vs. NHE was the highest; T3 site of 500 mV vs. NHE had two copper ions, so it is the one with a higher area; T2 site had 400 mV vs. NHE. The redox potential of T1 was registered to be in the range of fungal laccases (480-785 mV) (Solomon et al., 1996; Klonowska etal., 2002).
# The electrochemical measurements have been performed with BAS CV-50W voltammetric analyzer. For gold surface experiments, a gold BAS disc electrode has been used. The electrode was cleaned according to the following procedure: the electrode was firstly immersed in “piranha” solution, containing 1 part of hydrogen peroxide 33% v and 3 parts of sulphuric acid 98%, during 5 minutes, after which the electrode was rinsed thoroughly with milliQ water, and polished with Buehler® micropolish gamma alumina #3, 0.05 micron size, during 5 minutes, on a polishing cloth, further immersed into a milliQ water solution and exposed to ultrasounds for 15 minutes. Then, the electrode was cleaned with sulphuric acid oxidization cyclic voltammetry for 30 minutes. The electrode was rinsed three times with milliQ water and polished again for another 5 minutes with the same alumina powder. After the subsequent sonication for 15 minutes, the electrode was finally inmersed into a reductive 0.5 M NaOH solution for 30 minutes and rinsed with milliQ water. The laccase enzyme was immobilized by dropping […] of the enzyme solution at a concentration of 5 mg/ml on the gold surface facing upward and covered to avoid evaporation. After 90 minutes, the second drop was added. After 180 minutes from the first addition, the laccase-modified gold electrode was measured in 100 mM phosphate buffer (pH 6.0) in the presence of oxygen. For measurements under anaerobic conditions, N2 was “bubbled” for 15 minutes into the electrochemical cell. The same procedure was repeated for measuring in presence of 2,6-dimethoxyphenol, used as a test substrate. The immobilization on the carbon electrode was performed on a BAS glassy carbon electrode. The electrode was polished on a graphite-polishing cloth for 5 minutes, until mirror-like surface was achieved. The electrode was rinsed thoroughly with water and, facing upwards, 20 μl of the laccase solution (5 mg/ml) were dropped on the classy carbon surface. The electrode was covered and let to immobilize for 20 minutes. All electrochemical measurements performed for the gold electrode are repeated for this electrode.
# [7] = Oxidation of anthracene (HPLC, GC-MS/MS); type: biochemical; conditions: 50 μM anthracene, HOBt, pH 4.5, overnight, room temperature
# Method: (§2) Procedures for cloning, expression and purification of laccase are described in the reference: Beloqui, A., et al. (2006), which is made part of the disclosure of the present application.
# HPLC conditions: the HPLC (Varian 9012) was provided with an automatic injector (Autosampler L2200, VWR Hitachi). 10 μL of sample reaction were injected to a C18 Nucleosil 3 μm, 80×4 mm, column (AV-2486, Analisis Vinicos S. A.). The mobile phase consisted of acetonitrile:water 70:30 (v/v) and the flow rate was controlled at 1 mL/min. A PhotoDiode Array Detector (Prostar 335, Varian) with the UV lamp fixed to 251 nm was used to detect the eluted compounds.
# [8] = Oxidation of benzo[a]pyrene (HPLC); type: biochemical; conditions: 50 μM benzo[a]pyrene, HOBt, pH 4.5, overnight, room temperature
# Description: as §2
# Benzo[a]pyrene was oxidized, however the oxidation products haven't been identified yet.
# [9] = glassy carbon, after reactivation with oxygen, vs. NHE
molecule,measurement,setting,value
B1,substrate of the laccase,[1],not substrates
same,substrate of the laccase,[2],not substrates
same,substrate of the laccase,[3],not substrates
same,substrate preference,[4],SGZ>DMP>veratryl alcohol>guaiacol>tetramethylbenzidine>4-metoxybenzyl alcohol>2ABTS>phenol red
same,electrochemical activity (current),"[5]; carbon electrode, presence of oxygen",2.8 microamperes
same,T2 copper oxidization potential site,"[5]; carbon electrode, vs. normal hydrogen electrode (NHE)",+500
same,electrochemical activity (current),"[5]; gold electrode, absence of oxygen",0.69 microamperes
same,electrochemical activity (current),"[5]; gold electrode, presence of oxygen",0.38 microamperes
same,potential at which electro-reduction of oxygen begins,[6]; glassy carbon electrode,+500 mv
same,T1 oxidation potential,[6]; [9],745 mV
same,T2 site oxidation potential,[6]; [9],400 mV
same,T3 site oxidation potential,[6]; [9],500 mV
same,T1 copper site oxidization potential,"[6]; glassy carbon, oxygen removed from solution, vs. NHE",740 mV
same,potential at which electro-reduction of oxygen begins,[6]; gold electrode,+250 mV
same,oxidation of anthracene,[7],"efficiently oxidize anthracene to 9,10-antraquinone"
same,oxidation of benzo[a]pyrene,[8],oxidized
